Variants at the floor of the assay were thinned out.
Tests used:
biotinyl-Trp-oxazolone = test: self-aminoacylation, catalytic enhancement (BWO) (fold over background); higher = more active; k-Seq, kA / k0A0; sequences stand for … in GGGAAUGGAUCCACAUCUACGAAUUC…UUCACUGCAGACUUGACGAAGCUG
In short: (§1)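 Catalytic enhancement equals the median kA over the uncatalyzed rate, the latter read from the low-activity peak of a bimodal Gaussian fit. Values of kA came from fitting each sequence's fraction reacted to a pseudo-first-order model, with 1000 bootstraps. Reacted RNA was captured with streptavidin and quantified by triplicate qPCR and Illumina sequencing after 90 minutes at room temperature with 2–1250 μM biotinyl-aminoacyl-oxazolone and 0.43 μM mutagenized RNA pools bearing a 21-nt variable region.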

biotinyl-Ile-oxazolone = test: self-aminoacylation, catalytic enhancement (BIO) (fold over background); higher = more active; k-Seq, kA / k0A0; sequences stand for … in GGGAAUGGAUCCACAUCUACGAAUUC…UUCACUGCAGACUUGACGAAGCUG
In short: as §1

biotinyl-Met-oxazolone = test: self-aminoacylation, catalytic enhancement (BMO) (fold over background); higher = more active; k-Seq, kA / k0A0; sequences stand for … in GGGAAUGGAUCCACAUCUACGAAUUC…UUCACUGCAGACUUGACGAAGCUG
In short: as §1

biotinyl-Phe-oxazolone = test: self-aminoacylation, catalytic enhancement (BFO) (fold over background); higher = more active; k-Seq, kA / k0A0; sequences stand for … in GGGAAUGGAUCCACAUCUACGAAUUC…UUCACUGCAGACUUGACGAAGCUG
In short: as §1

biotinyl-Leu-oxazolone = test: self-aminoacylation, catalytic enhancement (BLO) (fold over background); higher = more active; k-Seq, kA / k0A0; sequences stand for … in GGGAAUGGAUCCACAUCUACGAAUUC…UUCACUGCAGACUUGACGAAGCUG
In short: as §1

biotinyl-Val-oxazolone = test: self-aminoacylation, catalytic enhancement (BVO) (fold over background); higher = more active; k-Seq, kA / k0A0; sequences stand for … in GGGAAUGGAUCCACAUCUACGAAUUC…UUCACUGCAGACUUGACGAAGCUG
In short: as §1

Sequence	self-aminoacylation (biotinyl-Trp-oxazolone)	self-aminoacylation (biotinyl-Ile-oxazolone)	self-aminoacylation (biotinyl-Met-oxazolone)	self-aminoacylation (biotinyl-Phe-oxazolone)	self-aminoacylation (biotinyl-Leu-oxazolone)	self-aminoacylation (biotinyl-Val-oxazolone)
CUUACCCUGGUCAUCGAUUGA [Fam2.1 aminoacylation ribozyme variant]	1.34	0.751	0.863	0.863	0.839	0.929
AUCCACCUAGGUCAUCGAGUG [Fam2.2 aminoacylation ribozyme variant]	5.78	6.55	7.89	17.4	10.3	5.17
CUACUUCAAUCAAUCUGUCUG [Fam1A.1 aminoacylation ribozyme variant]	0.721	0.599	0.539	1.25	0.57	0.597
AAGUUUGCUAAUAGUCGCAUC [Fam3.1 aminoacylation ribozyme variant]	0.681	0.778	0.649	1.53	0.61	0.706
CCACGCUUAAAGCAAUCGGUC [Fam1B.1 aminoacylation ribozyme variant]	0.646	0.96	0.741	0.884	0.752	1.02
AAGUCUGCUAAUAGUGGCAAG [Fam3.1 aminoacylation ribozyme variant]	1.17	0.678	0.98	3.1	0.866	0.765
AUUGACCUAGGUAAUCGGGUG [Fam2.2 aminoacylation ribozyme variant]	3.73	3.19	2.92	15	3.86	3
CCACAUUUCAAGCAAUCAGUC [Fam1B.1 aminoacylation ribozyme variant]	0.884	1	0.755	1.71	0.906	1.1
CUACUUCAAACAAUCGCGCUG [Fam1A.1 aminoacylation ribozyme variant]	1.1	1.47	1.52	1.59	1.88	1.35
CUACUUCCAACAAUCGGUCAG [Fam1A.1 aminoacylation ribozyme variant]	0.518	0.795	0.62	1.04	0.663	0.774
UUACUUCAAACAAUCGGUGUG [Fam1A.1 aminoacylation ribozyme variant]	5.33	1.51	1.97	7.15	2.36	1.46
CGACAUCAAACAAUCGGUCUG [Fam1A.1 aminoacylation ribozyme variant]	2.71	1.11	1.05	3.7	0.934	1.19
AUUACCUUGCUCAUCGAGUGA [Fam2.1 aminoacylation ribozyme variant]	3.02	1.68	2.29	4.55	2.31	1.82
CCACACUUCAAGCUAUCGGUA [Fam1B.1 aminoacylation ribozyme variant]	1.29	1.16	0.992	0.934	1.28	1.18
AUUACGCUGGUCAUCGAGUCA [Fam2.1 aminoacylation ribozyme variant]	0.981	1.15	1.15	0.768	1	1.23
AUUACCCUGGUCAUAGAGUUA [Fam2.1 aminoacylation ribozyme variant]	0.786	1.25	1.39	0.667	0.921	1.1
AUUCACCUAGGACAUAGGGUG [Fam2.2 aminoacylation ribozyme variant]	3.23	2.06	3.54	18.6	4.7	2.01
AUUCGCCUAGUUCAUCGGGUG [Fam2.2 aminoacylation ribozyme variant]	3.62	2.26	2.85	16.2	3.82	2.8
CAACACUUAAAGCAAUCGGUC [Fam1B.1 aminoacylation ribozyme variant]	0.79	1.12	0.98	0.828	0.82	0.909
AUUCACCUCGGUCAUCUGGUG [Fam2.2 aminoacylation ribozyme variant]	3.2	2.17	3.29	29.2	4.16	2.16
AAGUUUGUUUAUAGUCGCAAG [Fam3.1 aminoacylation ribozyme variant]	1.52	1.3	1.34	1.47	1.26	1.24
CCACACUUCAUGCAAUAGGUC [Fam1B.1 aminoacylation ribozyme variant]	0.467	0.711	0.582	1.03	0.637	0.834
CUACUUUACACAAUCGGUCUG [Fam1A.1 aminoacylation ribozyme variant]	0.543	0.87	0.872	0.601	0.742	0.805
AUUCACCUACGUCAUCCGGUG [Fam2.2 aminoacylation ribozyme variant]	7.01	4.29	5.94	46.7	8.48	3.84
AUUCACCUAGGUUAGCGGGUG [Fam2.2 aminoacylation ribozyme variant]	3.43	2.55	2.98	19.7	2.9	2.22
CUACUUCAAACAUUCAGUCUG [Fam1A.1 aminoacylation ribozyme variant]	0.602	1.04	0.734	0.971	0.741	0.812

Sequence	self-aminoacylation (biotinyl-Trp-oxazolone)	self-aminoacylation (biotinyl-Ile-oxazolone)	self-aminoacylation (biotinyl-Met-oxazolone)	self-aminoacylation (biotinyl-Phe-oxazolone)	self-aminoacylation (biotinyl-Leu-oxazolone)	self-aminoacylation (biotinyl-Val-oxazolone)
AUUACCCUGGUGAACGAGUGA [Fam2.1 aminoacylation ribozyme variant]	2.82	1.42	2.47	2.79	2.25	1.65
UUACUUCAAACAAUCGGUCCG [Fam1A.1 aminoacylation ribozyme variant]	1.64	0.82	0.942	1.69	0.937	0.891
CUACUUCUAACAAUCGGACUG [Fam1A.1 aminoacylation ribozyme variant]	0.419	0.566	0.398	0.602	0.495	0.572
AUUCACCUAGGUUAUCGGCUG [Fam2.2 aminoacylation ribozyme variant]	1.44	1.45	1.73	4.24	1.79	1.57
AUUCACCUCGGUCGUCGGGUG [Fam2.2 aminoacylation ribozyme variant]	2.53	2.42	2.41	11.4	2.85	3.12
CCACACUUCAAGCAACCGGUG [Fam1B.1 aminoacylation ribozyme variant]	6.05	3.92	5.05	33.9	7.08	4
AUUCAUCUAUGUCAUCGGGUG [Fam2.2 aminoacylation ribozyme variant]	6.27	4.09	6.63	50.7	8.74	3.8
AUUACCCUGGUCAUGUAGUGA [Fam2.1 aminoacylation ribozyme variant]	2.4	1.77	1.97	4.73	2	1.81
CUACGUCAAACAAUCGGUCAG [Fam1A.1 aminoacylation ribozyme variant]	0.909	0.855	0.917	0.761	1.12	0.797
AUUCAACUAGGUCAUCUGGUG [Fam2.2 aminoacylation ribozyme variant]	2.54	1.9	2.55	17.7	3.55	1.85
AUUAGGCUGGUCAUCGAGUGA [Fam2.1 aminoacylation ribozyme variant]	4.23	2.53	3.01	8.97	2.85	2.48
AUGCACAUAGGUCAUCGGGUG [Fam2.2 aminoacylation ribozyme variant]	10.4	6.5	10.5	73.3	10.2	6.08
AUUACCCUGGUGAUCAAGUGA [Fam2.1 aminoacylation ribozyme variant]	4.2	1.81	3.19	8.79	3.25	1.92
CUAAUUCUAACAAUCGGUCUG [Fam1A.1 aminoacylation ribozyme variant]	0.474	0.751	0.652	0.731	0.624	0.714
AUUCACCUAGAGCAUCGGGUG [Fam2.2 aminoacylation ribozyme variant]	1.64	1.76	2.34	12.4	2.43	2.06
AUUUCCCUGGUCCUCGAGUGA [Fam2.1 aminoacylation ribozyme variant]	3.91	2.08	3.79	23.5	3.67	1.93
AAGUGUGCUGAUAGUCGCAAG [Fam3.1 aminoacylation ribozyme variant]	1.38	1.53	1.74	2.85	1.42	1.24
AAGUAUGCCAAUAGUCGCAAG [Fam3.1 aminoacylation ribozyme variant]	1.43	2.21	1.77	2.34	1.53	1.46
AAGCUCGCUAAUAGUCGCAAG [Fam3.1 aminoacylation ribozyme variant]	2.2	2.09	1.75	3.66	2.49	1.95
AUUCACCUGGGUCAUCGGGUG [Fam2.2 aminoacylation ribozyme variant]	18.2	8.95	20.2	67.8	23.2	10.4
AUUCAUUUAGGUCAUCGGGUG [Fam2.2 aminoacylation ribozyme variant]	5.6	3.25	5.48	45.6	6.72	3.33
CUACCUCAACCAAUCGGUCUG [Fam1A.1 aminoacylation ribozyme variant]	0.886	0.766	0.811	1.08	0.671	0.891
CUACUUCGUACAAUCGGUCUG [Fam1A.1 aminoacylation ribozyme variant]	0.327	0.571	0.519	0.251	0.596	0.685
AUUCACCCAGGUCAUCGCGUG [Fam2.2 aminoacylation ribozyme variant]	13	8.24	16	123	19.4	8.43
AUUACCGUGGUCAUCGAGUGA [Fam2.1 aminoacylation ribozyme variant]	7.62	3.39	6.27	35.1	6.4	3.68
